# Test results reported in patent US20050053993A1, “Uses of an endothelial cell receptor” (priority 2002, published 2005).
# Numbering of substitutions follows the chain as printed. Numbers in names are those of the source.
# B1: recombinant human kringle 5 (rK5), Kringle 5 (450-543) of human plasminogen (ligand, UniProt P00747 469-562, looked up)
# chain: LLPDVETPSEEDCMFGNGKGYRGKRATTVTGTPCQDWAAQEPHRHSIFTPETNPRAGLEKNYCRNPDGDVGGPWCYTTNPRKLYDYCDVPQCAA
# modifications: tritium-labelled where printed as ^3HK5
# notes: range 450-543; Made in E. coli (His-tag removed by enterokinase) and in Pichia pastoris; Labelled and unlabelled rK5 are treated as one molecule; also called ^3HK5; H^3K5
# B2: rK5(K82A): mutant rK5(K82A) (protein)
# chain: B1 chain with K82A
# Experiments:
# HT-29 = experiment: Tumor cell proliferation, HT-29; format: cell-based; conditions: Homo sapiens; HT-29, 72 hours
# Protocol: (§1) Cell Proliferation Assay. The effect of rK5 and rK5 peptides on endothelial cells were assessed using a proliferation assay with 1% BSA and 3 ng/ml bFGF in serum-free media. Relative cell numbers in each well of a 96 well microplate after incubation for 72 hours in the absence or presence of inhibitors were determined by using the AQueous cell proliferation assay (Promega, San Luis Obispo, Calif.). For all other cell lines tested for proliferation, minimal growth media was used (Cao, Y., Ji, R., Davidson, D., Schaller, J., Marti, D., Sohndel, S., McCance, S., O'Reilly, M., Llinas, M., and Folkman, J. Kringle domains of human angiostatin. Characterization of the anti-proliferative activity on endothelial cells. (1996) J. Biol. Chem. 271, 29461-29467). Results are presented as the percent inhibition of control cell (bFGF-induced) proliferation.
# LNCaP = experiment: Tumor cell proliferation, LNCaP; format: cell-based; conditions: Homo sapiens, 72 hours
# Protocol: as §1
# P388 = experiment: Tumor cell proliferation, P388; format: cell-based; conditions: Mus musculus; P388, 72 hours
# Protocol: as §1
# B16F10 = experiment: Tumor cell proliferation, B16F10; format: cell-based; conditions: Mus musculus, B16-F10; B16F10, 72 hours
# Protocol: as §1
# D54 = experiment: Tumor cell proliferation, D54; format: cell-based, human; conditions: Homo sapiens; D54, 72 hours
# Protocol: as §1
# HT1080 = experiment: Tumor cell proliferation, HT1080; format: cell-based, human; conditions: Homo sapiens, HT-1080; HT1080, 72 hours
# Protocol: as §1
# [1] = target: GRP78 on the surface of human cells (EAHY, HMVEC, HT1080) (human) (UniProt P11021); experiment: cell-based or functional assay
# GRP78 on the surface of human cells (EAHY, HMVEC, HT1080) (human), sequence (P11021 19-654): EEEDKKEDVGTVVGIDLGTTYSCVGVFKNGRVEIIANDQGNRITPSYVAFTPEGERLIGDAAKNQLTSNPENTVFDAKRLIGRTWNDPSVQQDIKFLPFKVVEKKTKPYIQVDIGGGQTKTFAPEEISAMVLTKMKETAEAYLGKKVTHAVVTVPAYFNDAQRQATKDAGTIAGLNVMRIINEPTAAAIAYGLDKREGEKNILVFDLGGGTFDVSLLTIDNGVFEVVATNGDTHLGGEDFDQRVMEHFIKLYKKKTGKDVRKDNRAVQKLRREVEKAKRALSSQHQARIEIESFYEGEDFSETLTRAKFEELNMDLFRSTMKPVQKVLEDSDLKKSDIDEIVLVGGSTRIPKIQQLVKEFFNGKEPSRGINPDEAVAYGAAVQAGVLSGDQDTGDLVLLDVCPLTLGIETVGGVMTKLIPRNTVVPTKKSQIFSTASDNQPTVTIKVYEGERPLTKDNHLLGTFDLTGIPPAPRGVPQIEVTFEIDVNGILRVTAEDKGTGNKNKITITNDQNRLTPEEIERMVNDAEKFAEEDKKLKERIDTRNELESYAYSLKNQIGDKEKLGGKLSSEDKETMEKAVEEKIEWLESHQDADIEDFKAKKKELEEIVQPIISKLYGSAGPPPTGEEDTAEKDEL
# [2] = target: GRP78 on the surface of human cells (EAHY, HMVEC, HT1080) (human) (UniProt P11021); experiment: Scatchard analysis of 125I-dog K5 binding to endothelial cells
# [3] = target: GRP78 on the surface of human cells (EAHY, HMVEC, HT1080) (human) (UniProt P11021); experiment: Scatchard analysis of 125I-dog K5 binding to endothelial cells (50,000 cells per well, 1 hour room temperature)
# [4] = target: T1, GRP78 on the surface of human cells (EAHY, HMVEC, HT1080) (human, UniProt P11021 19-654); experiment: cell-based or functional assay
# T1 sequence (P11021 19-654): as above
# [5] = target: T1, GRP78 on the surface of human cells …; experiment: cell-based or functional assay; remark: listed apart in the source
# [6] = target: T2, yeast-expressed recombinant human GRP78 (rGRP78) (human, UniProt P11021 19-654, limits assumed); experiment: equilibrium dialysis of rGRP78 and 3H-K5 (FIG. 14A)
# T2 construct: also called recombinant GRP78
# T2 sequence (P11021 19-654 limits assumed): as the sequence (P11021 19-654) above
# [7] = target: T1, GRP78 on the surface of human cells …; experiment: labelled K5 binding to endothelial cells (FIG. 10A)
# HMVECs = experiment: Competition of 3HK5 binding to endothelial cells; parameters: species or system human; conditions: 2 nM 3HK5; rK5(K82A) up to 500 nM
# Protocol: Each K5 peptide or a N-terminal antibody to GRP78 was added to HMVECs at various concentrations for 1 hour at room temperature. Cells were washed and the amount of ^3HK5 bound was counted.
# Binding of human ^125IrK5 to Endothelial Cells: Tritium-labeled rK5 was added to monolayers of 50,000 HMVEC cells that were either starved or stimulated for 16 hours by 15 ng/ml bFGF and 5 ng/ml VEGF in 96 well plates. The number of counts remaining bound to the cells after extensive washing determined total amount of rK5 bound (Dudani A K, Ganz P R. Endothelial cell surface actin serves as a binding site for plasminogen, tissue plasminogen activator and lipoprotein(a). Br J Haematol. 1996 October; 95(1): 168-78). Binding of ^125IK5 (dog) to Endothelial Cells and rK5 to Recombinant GRP78: The same methods as described above for the expression and purification of human K5 were used to express dog rK5 in E. coli. ^125IK5 (dog) was added to the wells and incubated at room temperature for 1 hour. After 1 hour the cells were washed and lysed with M-Per (Pierce, Racine, Wis.) and the amount of ^125IK5 (dog) bound was counted. Scatchard plot analysis was performed using Prism (GraphPad Software, Inc., San Diego, Calif.) software. Competition binding against 5 nM ^125IK5 (dog) was tested using a monoclonal antibody against GRP78 (N-20, Santa Cruz, Calif.) or a monoclonal antibody against K5 (Green Mountain Antibodies, Burlington, Vt.). The antibodies were added to HMVECs at various concentrations for 1 hour at room temperature. Cells were washed and the amount of bound ^125IK5 (dog) bound was counted. Competition binding was also tested against 2 nM 3HK5. K5 peptides or a c-terminal antibody to GRP78 (A-129, Santa Cruz, Calif.) were added to HMVECs at various concentrations for 1 hour at room temperature. Cells were washed, lysed and the amount of ^3HK5 bound was estimated by scintillation counting.
# [8] = target: T3, recombinant human GRP78 (rGRP78) (Homo sapiens, UniProt P11021); experiment: Equilibrium dialysis of rGRP78 and 3HK5; format: binding; conditions: competition dialysis, 2 nM GRP78 and 2 nM 3HK5; mutant up to 25-fold excess of GRP78
# T3 construct: host or cells: yeast
# T3 sequence (P11021 19-654): as above
# Protocol: FIG. 14A is a graph showing equilibrium dialysis of recombinant GRP78 (rGRP78) and ^3HK5. ^3HK5 was added to one side of an equilibrium chamber at concentrations from 0.1 to 3 nM. 2 nM GRP78 was added to the other side of the chamber with a […] mwco filter between. ^3HK5 was allowed to equilibrate to both side of the chamber for 72 hours at room temperature. The amount of ^3HK5 on the GRP78 side of the chamber was compared to chamber with ^3HK5 alone to obtain the bound verses free rK5 distribution.
# FIG. 14B is a graph showing competition binding dialysis rGRP78 and ^3HK5. Experiments were performed with 2 nM GRP78 and 2 nM ^3HK5 using rK5(K82A) mutant and unlabeled rK5 at various concentrations from 0.5 to 50 nM. The amount of ^3HK5 on both sides of the chamber was measured after 72 hours and compared to the control.
# Binding of rK5 to rGRP78 was measured using equilibrium dialysis (Kariv I, Cao H, Oldenburg K R. Development of a high throughput equilibrium dialysis method. J Pharm Sci. 2001 May; 90(5):580-87). In the top well of a 96 well equilibrium dialyzer (molecular weight cut off 50K Daltons, Harvard Apparatus, Holliston, M A) 150 μl of 10 nM rGRP78 was added. In the reciprocal (bottom) chamber, 150 μl of increasing concentrations from 0.1 to 50 nM ^3HK5 was added. The chambers were shaken at room temperature for 72 hours. […]
molecule,measurement,setting,value
"COc1cccc2c1C(=O)c1c(O)c3c(c(O)c1C2=O)C[C@@](O)(C(=O)CO)C[C@@H]3O[C@H]1C[C@H](N)[C@H](O)[C@H](C)O1 [Adriamycin, reference compound]",IC50,HT-29,118 ± 8 ng/mL
same,IC50,LNCaP,410 ± 100 ng/mL
same,IC50,P388,2.6 ± 0.2 ng/mL
same,IC50,B16F10,3.2 ± 0.4 ng/mL
same,IC50,D54,5 ± 0.4 ng/mL
same,IC50,HT1080,2 ± 0.3 ng/mL
same,effect against D54 cell growth in combination with rK5,"D54 human glioma cells; Adriamycin 50 nM in combination with rK5, 72 hours",very effective
same,"inhibition of D54 cell growth, Adriamycin alone","D54 human glioma cells; Adriamycin 50 nM, 72 hours",did not inhibit
"recombinant dog kringle 5, radioiodinated (^125IrK5 (dog)) (ligand)","IC50, inhibition of VEGF stimulated HMVEC migration",[1],0.5 nM
same,binding sites per cell (binding sites per cell),[2],32500
same,Kd,[3],0.8 nM
B1,"IC50, endothelial cell migration assay (^3HK5)",[4],0.2 nM
same,apoptosis of HT1080 cells under hypoxic conditions,[4],> 2 fold
same,"IC50, inhibition of VEGF stimulated HMVEC migration",[5],0.2 nM
same,Kd,[6],~0.7 nM
same,Kd,[7],0.8 nM
B2,blocking of 3HK5 binding to endothelial cells,HMVECs,did not inhibit
same,blocking of 3HK5 binding to rGRP78,[8],did not block binding
